Measured values from patent publication US20250026813A1 (published 2025).
Residue numbers refer to the chain shown, from its start.

B1: IMPI-054 (antibody, V domains shown)
VH: EVQLVESGGGLIQPGGSLRLSCAASGLTVSSNYMSWVRQAPGKGLEWVSIIYSGGSTYYADSVKGRFTISRDNSKNTLYLQMNSLRAEDTAVYYCARLGGYYYYGMDVWGQGTTVTVSS
VL: DIQMTQSPSSLSASVGERVTITCQASQDIRNYLNWYQKKPGKAPKLLIYDSSNLETGVPSRFSGSGSGTDFTFTISSLQPEDIATYYCQQYDNLPITFGQGTRLEIK
B2: IMPI-042 (antibody, V domains shown)
VH: B1 VH
VL: B1 VL with S65G
B3: IMPI-017 (antibody, V domains shown)
VH: EVQLVESGGGLIQPGGSLRLSCAAAGLTVSSNYMNWVRQVPGKGLEWVSVIYSGGSTYYADSVKGRFTISRDNSKNTLYLQMNSLRAEDTAVYYCARDLGTLGMDVWGQGTTVTVSS
VL: DIQLTQSPSFLSASVGDRVTITCWASQGISTYLAWYQQKPGKAPKLLIYAASTLQSGVPSRFSGSGSGTEFTLTISSLQPEDFATYYCQQLNSYLPTFGQGTKVEIK
B4: IMPI-037 (antibody, V domains shown)
VH: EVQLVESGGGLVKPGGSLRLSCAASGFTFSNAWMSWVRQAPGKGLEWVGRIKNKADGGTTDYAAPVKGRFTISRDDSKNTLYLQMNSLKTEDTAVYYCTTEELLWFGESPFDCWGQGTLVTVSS
VL: B3 VL with S30N, T31S, A84T, L91F, S93D, L95P, P96R, Q100P
B5: IMPI-027 (antibody, V domains shown)
VH: QVQLQESGPGLVKPSQTLSLTCTVSGGSISSYGYYWNWIRQHPGKGLEWIGYIYYSGSTYYNPSLKSRVTISVDTSKNQLSLRLNSVSAADTAVYYCARDFGGNSNYFDYWGQGTLVTVSS
VL: AIQLTQSPSSLSASVGDRVTITCRTSQGISSALAWYQQKPGKAPKLLIYDASSLESGVPSRFSGSGSGTDFTLTISSLQPEDFATYYCQQFNSYPLTFGGGTKVEIK
B6: IMPI-024 (antibody, V domains shown)
VH: EVQLVQSGAEVKKPGESLKISCKGSGYSFTSYWIGWVRQMPGKGLEWMGIIYPGDSDTRYSPSFQGQVTISADKSISTAYLQWSSLKASDTAMYYCVRSYNWNYFDYWGQGTLVTVSS
VL: B5 VL with T25A, A32G, P40A, A51V, N92L, L96W, G100Q
B7: IMPI-033 (antibody, V domains shown)
VH: B5 VH with N37S, I71M
VL: B5 VL with T25A, K45N, Y94S
B8: IMPI-038 (antibody, V domains shown)
VH: QVQLVESGGGVVQPGRSLRLSCAASGFTFSSYGMHWVRQAPGKGLEWVAVISYDGSDKYYADSVKGRFTISRDNSKNTLYLQMNSLRAEDTAVYYCAKTVAGYYYYYYGMDVWGQGTTVTVSS
VL: DIQMTQSPSSVSASVGDRVTVTCRASQDISSWLAWFQQKPGKAPKFLIYDASNLENGVPSRFSGSGSGTDFTLTISSLQPEDFATYYCQQAKSFPWTFGQGTKVEIN
B9: IMPI-059 (antibody, V domains shown)
VH: EVQLVESGGGLIQPGGSLRLSCAASGFTVSSIYMSWVRQAPGKGLEWVSIIYSRGSTDYADSVKGRFTISRDISKNTLYLQMNSLRAEDTAVYYCARDGTMVRGVHAFDIWGQGTMVTVSS
VL: DIQMTQSPPSLSASIGDRVTITCQASQDISNYLNWYQQKPGKAPKLLIYDASNLETGVPSRFSGSGSGTDFTLTISNLQPEDIVTYYCQQYDNLPSSFGQGTKLEIK

target: SARS-CoV-2 spike protein receptor binding domain (isolated RBD) (SARS-CoV-2, UniProt P0DTC2 319-541)

Binder	Kd [nM]	koff [s⁻¹]	kon [M⁻¹ s⁻¹]
B1	1.11	0.000627	564000
B2	1.15	0.000617	536000
B3	1.87	0.000976	522000
B4	9.28	0.0232	2.5e+06
B5	4.06	26.3	6.48e+09
B6	0.633	0.00134	2.12e+06
B7	3.37	0.00741	2.2e+06
B8	2.92	–	–
B9	0.646	0.00426	6.59e+06
